Measurements published in US12264201B2, “Bispecific antibody targeting IL-1R1 and NLPR3” (University of Ulster, priority 2018, dated 2025).

Molecular target: NLRP3 inflammasome (Homo sapiens, UniProt Q96P20)
Assay: In vitro assay of NLRP3 assembly (hybridoma clones)
Details: compared among the hybridoma clones

NLRP3 inflammasome, sequence (Q96P20 whole entry): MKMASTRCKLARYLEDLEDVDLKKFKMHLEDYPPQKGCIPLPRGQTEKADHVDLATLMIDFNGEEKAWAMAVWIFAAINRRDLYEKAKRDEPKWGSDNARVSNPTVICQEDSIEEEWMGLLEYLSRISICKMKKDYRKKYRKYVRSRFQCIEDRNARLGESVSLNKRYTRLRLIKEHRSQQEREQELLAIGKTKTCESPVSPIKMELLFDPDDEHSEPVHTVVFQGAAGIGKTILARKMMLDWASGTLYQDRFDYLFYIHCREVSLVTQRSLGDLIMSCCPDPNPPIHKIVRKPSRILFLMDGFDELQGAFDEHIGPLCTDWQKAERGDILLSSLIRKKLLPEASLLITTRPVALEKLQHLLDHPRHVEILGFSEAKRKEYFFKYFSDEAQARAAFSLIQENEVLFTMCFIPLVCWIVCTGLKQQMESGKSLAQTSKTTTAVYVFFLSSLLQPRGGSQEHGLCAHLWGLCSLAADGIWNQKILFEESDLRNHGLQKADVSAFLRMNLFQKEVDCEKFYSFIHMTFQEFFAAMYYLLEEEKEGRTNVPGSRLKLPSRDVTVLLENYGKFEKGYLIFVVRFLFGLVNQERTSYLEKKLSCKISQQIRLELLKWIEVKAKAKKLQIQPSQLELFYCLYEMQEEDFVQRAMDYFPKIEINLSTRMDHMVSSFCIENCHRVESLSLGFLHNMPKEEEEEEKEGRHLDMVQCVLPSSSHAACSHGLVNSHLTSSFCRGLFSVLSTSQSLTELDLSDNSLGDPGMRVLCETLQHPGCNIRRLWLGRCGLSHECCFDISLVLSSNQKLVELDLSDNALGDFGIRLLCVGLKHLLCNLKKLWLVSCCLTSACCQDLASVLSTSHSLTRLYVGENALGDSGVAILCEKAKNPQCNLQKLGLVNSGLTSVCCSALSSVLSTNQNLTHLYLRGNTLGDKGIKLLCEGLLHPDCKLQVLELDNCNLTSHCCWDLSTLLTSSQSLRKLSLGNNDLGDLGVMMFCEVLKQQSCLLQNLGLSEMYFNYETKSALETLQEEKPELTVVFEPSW

preventing NLRP3 assembly: most active
B1: F226 7A7-1E1-2D5: anti-NLRP3 monoclonal antibody from hybridoma clone, sequenced and used in the bispecific; VH SEQ ID NO: 36, VL SEQ ID NO: 43 (antibody)
VH: MDFGLSWVFLVLVLKGVQCEVQLVESGGGLVKPGGSLKLSCAASGFTFSDYYMYWVRQTPEKRLEWVATISDGGTYTYYPDSVKGRFTISRDNAKNNLYLQMNSLKSEDTAMYYCARGWVSTMVKLLSSFPYWGQGTLVTVSAAKTTPPSVYPLA
VL: MAWISLLFSLLALSSGAISQAVVTQESALTTSPGETVTLTCRSSTGAVTTSNYANWVQEKPDHLFTGLIGGTNNRAPGVPARFSGSLIGDKAALTITGAQTEDEAIYFCALWYSNYWVFGGGTKLTVLGQPKSSPSVTLFPPSTEKLSL
